Three substances from patent US7629437 can be followed below.

Series [1] has as its system Ac-Nle-Thr-Pro-Lys-AMC.
Series [2] relates to Ac-Leu-Gly-Pro-Lys-ACC.
For series [3], the system named is Ac-Nle-Thr-Pro-Lys-ACC.
For series [4], the system named is Ac-Leu-Gly-Pro-Lys-AMC.
The subject of series [5] is Ac-PANK-ACC.
Series [6] has as its system Ac-PRNK-ACC.
The test system of series [7] is Ac-PRNR-ACC.
In series [8] the test system is Ac-PRTK-ACC.

Recombinant human βI tryptase, sequence (chain, as listed by the source): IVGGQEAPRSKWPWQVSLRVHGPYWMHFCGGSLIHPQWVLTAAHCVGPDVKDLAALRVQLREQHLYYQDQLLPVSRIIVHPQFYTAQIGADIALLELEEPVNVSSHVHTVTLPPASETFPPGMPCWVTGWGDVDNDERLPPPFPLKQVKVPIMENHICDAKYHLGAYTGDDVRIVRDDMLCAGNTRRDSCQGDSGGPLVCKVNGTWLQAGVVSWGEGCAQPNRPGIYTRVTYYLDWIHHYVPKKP

On to Human thrombin, for which the Km (in general, the substrate concentration at which the rate is half of its maximum) in series [1] is 115 µM; in series [2], 195 µM; in series [3], 125 µM; in series [4] it was 160 µM. The turnover number (kcat) (usually the number of substrate molecules converted per active site and unit of time at saturation) in series [1] was found to be 31 s⁻¹; in series [2], 3.2 s⁻¹; in series [3] it was 33.7 s⁻¹; in series [4], 2.3 s⁻¹. Moreover, the kcat/Km (commonly the turnover number divided by the Michaelis constant) in series [1] came to 260000 M⁻¹ s⁻¹; in series [2], 18000 M⁻¹ s⁻¹; in series [3], 280000 M⁻¹ s⁻¹; in series [4], 15000 M⁻¹ s⁻¹.

Regarding Recombinant human βI tryptase, in series [5], the Km was determined as 110 µM, the turnover number (kcat) was 20.3 s⁻¹ and the kcat/Km came to 180000 M⁻¹ s⁻¹. Further, in series [6], the Km stood at 8.9 µM; the kcat was 16.8 s⁻¹; the kcat/Km was found to be 1.89e+06 M⁻¹ s⁻¹; the “preference (kcat/Km) over Ac-PRTK-ACC” value is “A minimal preference, approximately two-fold, for P2-asparagine over P2-threonine”. Moreover, in series [7], the Km was 16.5 µM, the kcat turned out to be 21.8 s⁻¹ and the kcat/Km came to 1.31e+06 M⁻¹ s⁻¹. Moreover, in series [8], the Michaelis-Menten constant (Km) was found to be 14.7 µM, the kcat came to 18.7 s⁻¹ and the kcat/Km was 1.27e+06 M⁻¹ s⁻¹.

With Recombinant human βII tryptase, in series [5], the Michaelis-Menten constant (Km) turned out to be 133 µM, the kcat stood at 19.1 s⁻¹ and the kcat/Km was 140000 M⁻¹ s⁻¹. In addition, in series [6], the Km was 14.5 µM; the catalytic constant (kcat) turned out to be 17.8 s⁻¹; the specificity constant (kcat/Km) was determined as 1.23e+06 M⁻¹ s⁻¹; the “preference (kcat/Km) over Ac-PRTK-ACC” value is on record as “A minimal preference, approximately two-fold, for P2-asparagine over P2-threonine”. In addition, in series [7], the Michaelis-Menten constant (Km) amounted to 18.6 µM, the kcat was 20.9 s⁻¹ and the kcat/Km stood at 1.12e+06 M⁻¹ s⁻¹. For the same substance, in series [8], the Km came out at 23.4 µM, the catalytic constant (kcat) stood at 18.3 s⁻¹ and the specificity constant (kcat/Km) is 780000 M⁻¹ s⁻¹.
